This is an account of results in PMC12624782 (The Journal of Biological Chemistry, 2025).

Broadly, the kcat is the maximal rate divided by the concentration of active sites. As a reminder, the kcat/Km is the turnover number divided by the Michaelis constant.

The target in series [1] is T1, TaGST-10 (Triticum aestivum, UniProt A0A3B5XZG4).
T1 sequence (A0A3B5XZG4 1-234): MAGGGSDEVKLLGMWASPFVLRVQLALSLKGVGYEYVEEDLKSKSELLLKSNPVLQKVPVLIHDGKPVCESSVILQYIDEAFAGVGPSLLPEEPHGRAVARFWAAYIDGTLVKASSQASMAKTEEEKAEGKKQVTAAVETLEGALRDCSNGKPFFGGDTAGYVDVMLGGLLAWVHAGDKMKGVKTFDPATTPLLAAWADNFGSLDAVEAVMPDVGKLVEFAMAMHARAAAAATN
Description: co-crystal structure, […] Å. The series is classed as binding. On the set-up: gene LOC123049460; TaGST-10 after TEV removal of the N-His6-MBP tag; dimer in the asymmetric unit.

Series [2] addresses T1, TaGST-10. The series is described as follows: LC-MS/MS of DON-13-GSH formation, […] DON, apparent specific activity. The series is classed as biochemical. On the set-up: gene LOC123049460; N-His6-SUMO-TaGST-10, IMAC and size-exclusion purified.
Substrate in series [3]: N[C@@H](CCC(=O)N[C@@H](CS)C(=O)NCC(=O)O)C(=O)O
The series is described as follows: purified protein. The series is classed as biochemical, Triticum aestivum. The settings on record: G-site in the N-terminal domain; pH 6.5; 20.0 °C.

Substrate in series [4]: S=C=NCCc1ccccc1
The series is described as follows: purified protein. The series is classed as biochemical, Triticum aestivum. The settings on record: GSH; pH 6.5; 20.0 °C.

Substrate in series [5]: C=C(CC)C(=O)c1ccc(OCC(=O)O)c(Cl)c1Cl
Description: purified protein. The settings on record: GSH; pH 6.5; 20.0 °C.

Turning to `CC1=C[C@H]2O[C@@H]3[C@H](O)C[C@](C)([C@]24CO[C@@]1(O)[C@H]4O)[C@]3(O)CSC[C@H](NC(=O)CC[C@H](N)C(=O)O)C(=O)NCC(=O)O` (mixture of isomers) [DON-13-GSH], the “co-crystal structure, 2.3 Å” value in series [1] was “TaGST-10 crystallized as a dimer in the asymmetric unit and contained a molecule of DON-13-GSH in each active site”.

On to `CC1=C[C@H]2O[C@@H]3[C@H](O)C[C@](C)([C@@]2(CO)[C@H](O)C1=O)[C@]31CO1` [DON, deoxynivalenol], for which, in series [2], the “LC-MS/MS of DON-13-GSH formation, 5 mM DON, apparent specific activity” value is listed as 6.3 10^−5 ± 0.4 10^−5.

B1: TaGST-10 (Triticum aestivum) (protein)
chain: T1 sequence (A0A3B5XZG4 1-234)
notes: N-His6-MBP-TaGST-10 (full-length fusion)
Turning to B1, the K0.5 in series [3] was determined as 0.46 ± 0.01 mM. In addition, in series [4], the K0.5 was 0.041 ± 0.004 mM, the kcat turned out to be 2 s⁻¹ and the catalytic efficiency (kcat/Km) was 47000 M⁻¹ s⁻¹. For the same molecule, in series [5], the K0.5 is listed as 0.023 ± 0.003 mM, the kcat turned out to be 0.13 s⁻¹ and the kcat/Km turned out to be 5500 M⁻¹ s⁻¹.
